From patent publication US20060257887A1 come the findings set out here.

The target in this test is GFP 1-10 OPT (Aequorea victoria) [GFP: P42212]. Put plainly: cell-based or functional assay.

On to “HPS-GFP 11 M2 (3-hexulose 6-phosphate synthase fused to GFP S11 M2; L221H, F223S, T225N)”, for which the complementation rate (fold (decrease)) stood at 5.
